Assay results reported in the supplement of paper PMC9170038.

Test system: MS2 coat protein
Test: apparent KD of MS2 coat protein; designed switch direction (-1 OFF switch, 1 ON switch): -1; higher = weaker reporter binding
Outline: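 For each design, the apparent KD is the median over clusters of curves fitted to normalised cluster fluorescence. Clusters held RNA switches with common flanks, transcribed on Illumina chips by stalled E. coli RNA polymerase. These were titrated with SNAP-549-labelled MS2 coat protein, doubling from 0.7 or 1.5 nM to 3 µM, without input, with 200 uM small-molecule ligand, or with an oligonucleotide input.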

[1] = input ligand: microRNA oligo, concentration not stated
[2] = Eterna round: R95, input ligand: microRNA oligo, concentration not stated
[3] = Eterna round: R95, input ligand: FMN 200 uM
[4] = Eterna round: R95, input ligand: none

Sequence	apparent KD of MS2 coat protein (input ligand: FMN 200 uM) [nM]	apparent KD of MS2 coat protein [1] [nM]	apparent KD of MS2 coat protein (input ligand: none) [nM]	apparent KD of MS2 coat protein [2] [nM]	apparent KD of MS2 coat protein [3] [nM]	apparent KD of MS2 coat protein [4] [nM]
GCGGACAAGAUCGCGAGAUCAGAGACAUGAGGAUCACCCAUGUAGGAUAUCGAUUCGAAACGAAUCGAGAAGGGCAUAGUCCGC [JL denovo 5] (Eterna round: R96, puzzle: Exclusion NG 3)	17.3	11.6	19.4			
UAUCUAUGAGGAUAUCAUAGUAGUUACAUGAGGAUCACCCAUGUCAUGACAGAACUGGGAUGAGAAGGCAUUCGUU [Eternabot (L2) Solution 73] (Eterna round: R97, puzzle: Exclusion 5)	291		447			
AGUAACAGAGGAUAUACUGUUUUAUGUAUUUAUUAUUUUAAACAUGAGGAUCACCCAUGUAGAAGGCUGAAUAA [JMF 81] (puzzle: Exclusion 2)				17.5		
CUCAUGUCAGGAUAUCUACAUUAAAUUGGUAACCAAGCAUGAGAGAAGGGACAUGAGGAUCACCCAUGUAAAAC [Cegeange] (Eterna round: R97, puzzle: Exclusion 4)	44		27.5			
GGUUGGCGAGGAUAUACAUGAGGAUCACCCAUGUGAGAGAAAGAAGUGAGGAAGAAAAGUAGAAGGCGCUGACG [salish99_ex3_r3_005] (puzzle: Exclusion 3)				196	542	59
GGGCCCGGAGGAUAUACAUGAGGAUCACCCAUGUAGGGCCCGGGUAUUCCCGGGUUUUGUAGAAGGCCGGGUUU [-33.8, -30.7 kcal, A 19%, 5a,5a] (Eterna round: R97, puzzle: Exclusion 3)	25.1		14.8			
GGCAUGUGAGGAUAUUAACGGCCUAGACCUGGAACGCCACUUAAGAAGGUACAUGAGGAUCACCCAUGUUGGUG [Eternabot (L2) Solution 19] (Eterna round: R97, puzzle: Exclusion 4)	711		367			
CCUGCACAUGAGGAUCACCCAUGUCAGGAUAUCUCGCCGUCGGCUUGCCGACGGUAUUAGAGAAGGGACACGGG [JL Tixe mod 1] (puzzle: Exclusion 1)				22		
CAGUACUGAGGAUAUACAUGAGGAUCACCCAUGUGUUCCAGCUAGGAUACUAGCAAAGGAAGAAGGCAGUACUG [Mat - Exclusion 3 - Eli Mod - D2] (Eterna round: R97, puzzle: Exclusion 3)	19.4		18.9			
AAUUUACAUGAGGAUCACCCAUGUGAGGAUAUAUACAAAGAAGUGUUAGUAAGAAUGUAUAGAAGGCGCGUGAU [JR_Exc1_Sub040] (Eterna round: R97, puzzle: Exclusion 1)	71.4		58.6			
GCACUGGCAGGAUAUACAUGAGGAUCACCCAUGUGAUCCCUUAGGUACAAAAGUACUAGUAGAAGGGCCUGUGC [Omei Ex3 Model Bachelor's Dilema v48] (Eterna round: R97, puzzle: Exclusion 3)	294		968			
AGUGCUGGCGCGUCGGUGUUGGUACAAUAAGCUUGUGAAACAUGAGGAUCACCCAUGUCCUCAUAAGCUCGUCUUAU [salish99_TOv2_r2_084] (puzzle: Sensor v3, turn-off variant 2)				553	17.6	16.9
AAAAGGCUAGGAUAUACAUGAGGAUCACCCAUGUGUACUGGACAUGCGGUAUGCGUAUGUAGAAGGAGUAUAAA [Inaisor] (puzzle: Exclusion 3)				14.2		
CAGUACUGAGGAUAUACAUGAGGAUCACCCAUGUGUUCCAGCUAGGAAACUAGCUAAAGUAGAAGGCAGUACUG [salish99_ex3_r3_092x] (puzzle: Exclusion 3)				24.1	459	25
CCUAGUUGGUAAGGAUAUCCUACAUUGUUCUGGCCCGGGCAUGCUACAUGAGGAUCACCCAUGUGGGAGAAGGUGCGUCAUCGC [Design 17] (Eterna round: R96, puzzle: Exclusion NG 2)	80.4	53.3	71.7			
